These results are taken from patent US9791436.

The target in the test is SH3-peptide-tagged TVMV-inducible HCV-based signal transducers. As to the kind of experiment: cell-based or functional assay.

B1: SH3-H6-68-AP (protein)
chain: SGGSGAEYVRALFDFNGNDEEDLPFKKGDILRIRDKPEEQWWNAEDSEGKRGMIPVPYVEKYRPASASVSALIGGRGGSGGSGGSGGSGGSGGSSKALLKGVRDFNPISACVCLLENSSDGHSERLFGIGFGPYIIANQHLFRRNNGELTIKTMHGEFKVKNSTQLQMKPVEGRDIIVIKMAKDFPPFPQKLKFRQPTIKDRVCMVSTNFQQKSVSSLVSESSHIVHKEDTSFWQHWITTKDGQCGSPLVSIIDGNILGIHSLTHTTNGSNYFVEFPEKFVATYLDAADGWCKNWKFNADKISWGSFILWEDAPEDFMSGLVPRGVGREYVRFAPGSTHHHHHH
For the molecule B1, the induction ratio amounted to 20 fold.
